Test results published in the supplement of paper PMC9732359.
± gives the uncertainty stated by the source.

Test: protein stability index of a GFP-peptide fusion (yeast GPS) (PSI 1-4); higher = more stable; sorted into four equal gates, so the index is relative within each strain
Method in brief: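 The protein stability index of a peptide was calculated by multiplying its read frequency in each gate by that gate's number and adding the products. The peptides were tiled 17-residue stretches of yeast proteins, fused downstream of GFP on a Cherry-expressing plasmid and carried in yeast as a pooled library. Mid-log cultures in leucine-free medium were sorted into four equal gates by GFP/Cherry ratio, and each gate's plasmids were PCR-amplified and Illumina-sequenced.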

Row | Sequence | protein stability index (doa10∆) | protein stability index (pdr5∆) | protein stability index (san1∆) | protein stability index (ubr1∆)
1 | NGKTRTLENTLKAAFVA [RPS2] | 2.85 ± 0.11 | 2.8 ± 0.14 | 3 ± 0.089 | 2.67 ± 0.085
2 | NGNITYSEEPREKVRKL [FAS2] | 2.99 ± 0.17 | 3.54 ± 0.18 | 3.3 ± 0.2 | 3.53 ± 0.18
3 | NGQRSNSIRAREVENSV [SMC1] | 3.31 ± 0.075 | 3.37 ± 0.058 | 3.36 ± 0.048 | 3.19 ± 0.072
4 | NGQSLSPVRSDSADVPA [YMR153W/NUP53] | 3.06 ± 0.081 | 3.15 ± 0.081 | 3.09 ± 0.11 | 2.91 ± 0.05
5 | NGTTVWGTLQSVSPQMN [SMD1] | 3.57 ± 0.25 | 3.01 ± 0.24 | 3.39 ± 0.19 | 2.96 ± 0.18
6 | NGVPGQALDAVRMRLAQ [MED8] | 1.38 ± 0.067 | 1.39 ± 0.063 | 1.25 ± 0.1 | 1.26 ± 0.047
7 | NHITEFPSIPLPINGPI [RPC31] | 2.06 ± 0.05 | 2.24 ± 0.048 | 2.08 ± 0.07 | 1.94 ± 0.051
8 | NIDINNEDENIQLIKIL [YJL041W/NSP1] | 2.52 ± 0.055 | 2.56 ± 0.071 | 2.99 ± 0.049 | 2.7 ± 0.042
9 | NIDQEGSKQADRMAKYL [PGD1] | 3.4 ± 0.094 | 3.35 ± 0.13 | 2.97 ± 0.087 | 3.17 ± 0.15
10 | NIEERKEKIQHELGINI [BRR2] | 3.02 ± 0.094 | 3.34 ± 0.075 | 3.52 ± 0.075 | 3.22 ± 0.1
11 | NIIASPLSAGFNYGKLP [SIN4] | 2.62 ± 0.079 | 2.72 ± 0.086 | 2.68 ± 0.048 | 2.54 ± 0.076
12 | NILSNKPGQNNRQQKKR [RRP6] | 2.73 ± 0.18 | 3.06 ± 0.13 |  | 
13 | NINSTDKSIDTSSLQLY [YML103C/NUP188] | 2.98 ± 0.099 | 2.67 ± 0.14 | 3.11 ± 0.049 | 3.25 ± 0.07
14 | NIPFWKHVGFELLSMGN [SRP72] | 1.82 ± 0.1 | 1.58 ± 0.085 | 2.01 ± 0.16 | 1.27 ± 0.079
15 | NIPQQQQMQPPNSSANN [GAL11] | 2.82 ± 0.062 | 2.9 ± 0.062 | 2.85 ± 0.048 | 2.75 ± 0.041
16 | NIRNNIESQNLDLIPHS [SRB4] | 2.62 ± 0.052 | 2.92 ± 0.046 | 2.62 ± 0.05 | 2.7 ± 0.029
17 | NITFSEELVSLAVFLFD [YJL039C/NUP192] |  |  | 1.62 ± 0.28 | 1.66 ± 0.29
18 | NITKNLKTFNGSLALLK [POP4] |  | 3.19 ± 0.15 | 2.93 ± 0.082 | 3.13 ± 0.1
19 | NIVQVFKKAAPSPISHV [RPB2] | 2.2 ± 0.11 | 2.33 ± 0.071 | 2.16 ± 0.075 | 2.09 ± 0.043
20 | NKEKSNSPTSFFDGSAS [YOR098C/NUP1] | 3.1 ± 0.068 | 3.07 ± 0.057 | 3.02 ± 0.041 | 2.95 ± 0.081
21 | NKFHKSIREDILECDLL [SIR2] | 2.73 ± 0.058 | 2.91 ± 0.066 | 3 ± 0.049 | 3.08 ± 0.06
22 | NKFMSIFLKRKDFTNKN [SRB8] | 2.38 ± 0.067 | 2.2 ± 0.082 | 3.03 ± 0.058 | 2.58 ± 0.065
23 | NKIMTNQINSFWSLHSS [NUT1] | 1.91 ± 0.2 | 2.23 ± 0.15 | 2.06 ± 0.11 | 3.31 ± 0.1
24 | NKKGRGHVKPVRCVNCS [RPS26A] | 3.18 ± 0.065 | 2.98 ± 0.077 | 2.98 ± 0.085 | 3.02 ± 0.076
25 | NKQYELFMKSLIENCKK [SWI1] | 2.58 ± 0.053 | 2.85 ± 0.061 | 2.77 ± 0.046 | 2.66 ± 0.036
26 | NKQYHQANSNLTLLERK [NUT1] | 2.34 ± 0.054 | 2.77 ± 0.055 | 2.59 ± 0.082 | 2.83 ± 0.066
27 | NKRWKVDIGGKQHAVLM [RRP4] | 2.87 ± 0.064 | 3.25 ± 0.067 | 3.18 ± 0.05 | 3.2 ± 0.037

Row | Sequence | protein stability index (doa10∆) | protein stability index (pdr5∆) | protein stability index (san1∆) | protein stability index (ubr1∆)
28 | NKTSNNNNVTAVPAATP [SWI1] | 2.84 ± 0.044 | 3.06 ± 0.046 | 2.81 ± 0.032 | 3.07 ± 0.042
29 | NLAIVELVRLLIIDEIH [BRR2] | 2.58 ± 0.069 | 2.38 ± 0.08 | 2.85 ± 0.088 | 2.36 ± 0.062
30 | NLAPKLRNVFLGKCSRI [GRR1] | 2.7 ± 0.048 | 2.43 ± 0.049 | 2.58 ± 0.041 | 2.29 ± 0.049
31 | NLDSSITQDGKFAYKID [YMR129W/POM152] | 2.38 ± 0.065 | 2.69 ± 0.064 | 2.26 ± 0.08 | 2.71 ± 0.05
32 | NLEPLIAKLVAVLNVSP [NUT1] | 1.47 ± 0.064 | 1.38 ± 0.066 | 1.69 ± 0.14 | 1.43 ± 0.057
33 | NLERLRSDLQSKIQEIE [YIL149C/MLP2] | 3.08 ± 0.077 | 3.37 ± 0.076 | 3.49 ± 0.073 | 3.33 ± 0.1
34 | NLFSSTGFKGLLIELQA [SRB2] | 2.6 ± 0.12 | 2.87 ± 0.069 | 2.92 ± 0.058 | 2.94 ± 0.042
35 | NLGEYESAVKYALAAKD [RPN2] | 2.42 ± 0.15 | 2.65 ± 0.09 | 2.7 ± 0.09 | 2.8 ± 0.054
36 | NLGYCNDKLIVDNDNWV [RPN1] | 2.37 ± 0.1 | 2.79 ± 0.18 | 2.32 ± 0.2 | 
37 | NLHALSMSLQSKNLGEI [SWI1] | 2.57 ± 0.058 | 2.61 ± 0.077 | 2.04 ± 0.17 | 2.66 ± 0.068
38 | NLIIFLYKFNGWSLVGR [YML103C/NUP188] | 1.59 ± 0.069 | 2.22 ± 0.11 | 2.52 ± 0.2 | 2.68 ± 0.11
39 | NLKDLNNVKQMVMAGSK [RPO21] | 1.81 ± 0.12 | 1.95 ± 0.12 |  | 1.92 ± 0.077
40 | NLKEYNKFMSIFLKRKD [SRB8] | 1.64 ± 0.06 | 2.22 ± 0.12 | 2.83 ± 0.078 | 1.88 ± 0.096
41 | NLLPKKSAKATKASQEL [HTA1] | 2.93 ± 0.1 | 3.09 ± 0.12 | 3.17 ± 0.069 | 3.03 ± 0.088
42 | NLPKDKSGIPEFTPADP [SSN2] | 2.99 ± 0.091 | 3.12 ± 0.075 | 3.03 ± 0.076 | 3.47 ± 0.056
43 | NLRTQVTQQKRSLDENR [SMC1] | 3.24 ± 0.12 | 3.09 ± 0.066 | 2.91 ± 0.092 | 3.07 ± 0.086
44 | NLSQENDNEGKHISASI [YAR002W/NUP60] | 3.04 ± 0.075 | 3.34 ± 0.06 | 3.13 ± 0.054 | 3.12 ± 0.044
45 | NLTIHFGGEKGKRIREN [FAS1] | 3.39 ± 0.1 | 3.01 ± 0.18 | 3.05 ± 0.092 | 3.31 ± 0.075
46 | NLWKNIFLSKENSAVAA [COR1] | 1.85 ± 0.053 | 2.24 ± 0.059 | 2.01 ± 0.13 | 1.61 ± 0.063
47 | NMEKEKDRIIDERTKEF [YIL149C/MLP2] | 3.11 ± 0.078 | 2.93 ± 0.11 | 3.1 ± 0.074 | 3.16 ± 0.058
48 | NMLICAPTGSGKTNIAL [BRR2] | 2.55 ± 0.079 | 3.12 ± 0.08 | 2.12 ± 0.091 | 2.98 ± 0.053
49 | NMYTSTQKTELEIDNKD [SIR4] | 3.04 ± 0.069 | 3.01 ± 0.081 | 3.04 ± 0.068 | 3.06 ± 0.065
50 | NNAHSSDLGTVVFDSNE [YMR153W/NUP53] | 2.56 ± 0.16 | 2.46 ± 0.093 | 2.24 ± 0.1 | 1.85 ± 0.082
51 | NNDVFTIGPYRARKDRM [SSN3] | 3.67 ± 0.27 | 3.11 ± 0.26 | 3.43 ± 0.14 | 3.32 ± 0.13
52 | NNFIVERVQSDENKDDE [SRP68] | 3.52 ± 0.16 | 3.35 ± 0.1 | 2.77 ± 0.23 | 3.04 ± 0.098
53 | NNGLPMKNKAETTTEED [ITC1] | 2.35 ± 0.29 | 3.18 ± 0.1 | 2.94 ± 0.092 | 3.03 ± 0.12
